# Results reported in patent publication US20060211624A1, “Methods and compositions for the treatment of parkinson's disease and other alpha-synucleinopathies” (Goverment of the US, as Represented by, priority 2003, published 2006).
# Target: purified recombinant human α-synuclein protein, P37840
protein,measurement,value
purified guinea pig liver tTGase (protein) AEDLILERCDLQLEVNGRDHRTADLCRERLVLRRGQPFWLTLHFEGRGYEAGVDTLTFNAVTGPDPSEEAGTMARFSLSSAVEGGTWSASAVDQQDSTVSLLLSTPADAPIGLYRLSLEASTGYQGSSFVLGHFILLYNPRCPADAVYMDSDQERQEYVLTQQGFIYQGSAKFINGIPWNFGQFEDGILDICLMLLDTNPKFLKNAGQDCSRRSRPVYVGRVVSAMVNCNDDQGVLQGRWDNNYSDGVSPMSWIGSVDILRRWKDYGCQRVKYGQCWVFAAVACTVLRCLGIPTRVVTNFNSAHDQNSNLLIEYFRNESGEIEGNKSEMIWNFHCWVESWMTRPDLEPGYEGWQALDPTPQEKSEGTYCCGPVPVRAIKEGHLNVKYDAPFVFAEVNADVVNWIRQKDGSLRKSINHLVVGLKISTKSVGRDEREDITHTYKYPEGSEEEREAFVRANHLNKLATKEEAQEETGVAMRIRVGQNMTMGSDFDIFAYITNGTAESHECQLLLCARIVSYNGVLGPVCSTNDLLNLTLDPFSENSIPLHILYEKYGDYLTESNLIKVRGLLIEPAANSYVLAERDIYLENPEIKIRVLGEPKQNRKLIAEVSLKNPLPVPLLGCIFTVEGAGLTKDQKSVEVPDPVEAGEQAKVRVDLLPTEVGLHKLVVNFECDKLKAVKGYRNVIIGPA,"formation of high molecular weight aggregates of α-synuclein (in vitro cross-linking reaction, SDS/PAGE and Western blot)","In the presence of DTT, the reduced form of tTGase induced the formation of high molecular weight aggregates of α-synuclein"
